Here are results for nine molecules from patent US10004812B2 (priority 2014, dated 2018).

In general, IC50 refers to the concentration needed to halve the response being measured.

Like-named read-outs stand apart in the source and are kept apart here. *1 amine or outer side, *2 acyl side, *3 side chain or, on linkers, in order; H or OH if unused. Where a SMILES comes first, the peptide text is derived from it. [ ]: non-standard residue; d: D form. The star is where a group is joined. ξ: configuration not given here. NPrTuv(OPr) = CCCO[C@H](C[C@H](C(C)C)N(CCC)[*:1])c1nc(C(=O)[*:2])cs1; Dolaproine = CO[C@@H]([C@@H]1CCCN1)[C@@H](C)C(=O)O; Hexanoyl(6-maleimido) = O=C1C=CC(=O)N1CCCCCC(=O)*; X1 = COC(=O)[C@@H](C)C[C@H](Cc1ccc(O)cc1)N*; Dil = CC[C@H](C)[C@H](NC)[C@@H](CC(=O)O)OC; PABC = O=C(OCc1ccc(N[*:1])cc1)[*:2]; X2 = C[C@@H](N*)[C@@H](O)c1ccccc1; Cit = NC(=O)NCCC[C@H](N)C(=O)O; NMeV = CN[C@H](C(=O)O)C(C)C; ξIle = CC[C@H](C)C(N)C(=O)O; dPip = O=C(O)[C@H]1CCCCN1

In data set [1] the test system is HT1080 cells. Put plainly: Cell proliferation arrest on HT1080 cells (CPA; crystal violet). The data set is classed as cell-based. The method, then: Microtubule inhibition activity and cytotoxic activity of each new derivative were evaluated through tubulin polymerization inhibition assay (TPI; Tubulin Polymerization assay kit; Cytoskeleton, Cat. #BKO11P), and cell proliferation arrest on HT1080 cells (CPA; crystal violet).

A further data set deals with HT1080-FAP cell line. The data set is classed as cell-based. The following applies: crystal violet viability, FIG. 6, read-out: cytotoxic activity IC50.
Data set [2] concerns rabbit reticulocyte cell-free lysates.
For data set [3] the following is noted: Table 3, published data; cited from earlier work.
The test system of data set [4] is PAXF-736 pancreas cancer xenograft. Put plainly: Anti-tumoral effect in patient-derived xenograft mouse model for pancreas cancer (PAXF-736). The data set is classed as in vivo. As for the experimental part:
Both types of immunoconjugates, recNgA- and cytolysin-conjugates, were evaluated for their anti-tumoral effect in vivo in a patient-derived xenograft mouse model for pancreas cancer (PAXF-736), previously selected for antigen expression.
Immunoconjugates were then administrated once a week intraperitoneally over 5 weeks. Tumor volume and body weight were measured every 2-3 days. Vehicle-treated and Gemcitabine-treated (150 mg/kg) PDX mice were used as negative and positive control groups, respectively.
(In general: A xenograft is tissue or cells of one species grown in another, often human tumour cells in immunodeficient mice.)

The test system of data set [5] is HT1080 cells. Description: Flow cytometry cell binding, ENG-positive HT1080 cells. Also on record: species or system human. To be noted: FIG. 3b. The method, then:
Purified anti-muENG mE12 and anti-huENG A5 antibodies were analyzed in ELISA for binding to recombinant ENG and using flow cytometry analysis (FACS).
(§1) Purified proteins A5-IgG and mE12-IgG were characterized by SDS-PAGE and size exclusion chromatography. Bioactivity was analyzed by ELISA, using recombinant mouse/human ENG and detection of bound antibodies with HRP-conjugated anti-human IgG antibodies. Cell binding was analyzed by flow cytometry, using ENG-positive HT1080 and ENG expressing mouse eEnd2. Melting points were determined by dynamic light scattering using a zetasizer nano. Affinities were determined by QCM using an Attana A100. Internalization study was performed by indirect immunofluorescence confocal microscopy on permeabilized cells, detecting bound and internalized antibodies with a FITC-labeled secondary antibody.

The nature of data set [6]: Melting point by dynamic light scattering (zetasizer nano). The data set is classed as physicochemical. The following applies: thermal stability. As for the experimental part:
as §1

The subject of data set [7] is HT1080 cells. Description: Internalization by indirect immunofluorescence confocal microscopy. The class given is cell-based, human. The method, then:
as §1
Preliminary internalization studies indicate rapid cellular internalization for A5-IgG against cells expressing human ENG. Indeed within 30 min, almost 90% of the A5-IgG is found within HT1080 cells.

For the next data set, the target named is T1, recombinant human ENG (Homo sapiens, UniProt P17813).
T1 sequence (P17813 whole entry, looked up): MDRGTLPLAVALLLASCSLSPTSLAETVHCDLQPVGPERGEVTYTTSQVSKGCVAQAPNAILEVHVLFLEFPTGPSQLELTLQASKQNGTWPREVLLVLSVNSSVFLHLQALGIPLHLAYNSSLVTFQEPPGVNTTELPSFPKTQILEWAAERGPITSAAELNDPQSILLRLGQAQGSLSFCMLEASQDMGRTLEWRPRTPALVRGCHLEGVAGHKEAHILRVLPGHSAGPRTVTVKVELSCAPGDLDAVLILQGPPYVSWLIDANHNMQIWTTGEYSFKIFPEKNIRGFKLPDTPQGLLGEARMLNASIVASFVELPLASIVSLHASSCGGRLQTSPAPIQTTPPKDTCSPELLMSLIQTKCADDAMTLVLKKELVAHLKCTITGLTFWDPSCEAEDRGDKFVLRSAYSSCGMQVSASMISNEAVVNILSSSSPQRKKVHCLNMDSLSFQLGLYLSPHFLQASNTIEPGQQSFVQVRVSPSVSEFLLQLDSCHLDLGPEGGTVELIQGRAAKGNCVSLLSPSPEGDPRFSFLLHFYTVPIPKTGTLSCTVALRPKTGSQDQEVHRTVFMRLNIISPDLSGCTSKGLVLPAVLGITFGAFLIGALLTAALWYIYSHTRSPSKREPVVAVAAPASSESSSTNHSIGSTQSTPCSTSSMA
Description: ELISA binding to immobilized recombinant human ENG. To be noted: FIG. 3a. A general note: In an ELISA, binding on a coated surface is turned into a signal by an enzyme label.

Description for recombinant human ENG: Bioactivity was analyzed by ELISA using recombinant ENG and detection of bound antibodies with HRP-conjugated anti-human IgG antibodies.

On to `CC[C@H](C)[C@@H]([C@@H](CC(=O)N1CCC[C@H]1[C@H](OC)[C@@H](C)C(=O)N[C@H](C)[C@@H](O)c1ccccc1)OC)N(C)C(=O)[C@@H](NC(=O)[C@@H](NC)C(C)C)C(C)C` [MMAE, reference compound] (H-[NMeV]V[Dil][Dolaproine]-X2), for which the IC50 in the data set on HT1080 cells [1] is 0.1 to 0.6 nM.

Consider `CCCO[C@H](C[C@H](C(C)C)N(CCC)C(=O)C(NC(=O)[C@H]1CCCCN1C(=O)OCc1ccc(NC(=O)[C@H](CCCNC(N)=O)NC(=O)[C@@H](NC(=O)CCCCCN2C(=O)C=CC2=O)C(C)C)cc1)[C@@H](C)CC)c1nc(C(=O)N[C@@H](Cc2ccc(O)cc2)C[C@H](C)C(=O)OC)cs1` (stereo partly drawn) [TAM467, Maleimido-Val-Cit-PABOCO-Tubulysin/Cytolysin-TAM461] ({Hexanoyl(6-maleimido)}-V[Cit][PABC][dPip][ξIle][NPrTuv(OPr)]-X1), for which, in the data set on HT1080 cells [1] (Homo sapiens, HT-1080), the IC50 is 230 to 420 nM.

In the data set with HT1080 cells [1] (Homo sapiens, HT-1080), `CCCO[C@H](C[C@H](C(C)C)N(CCC)C(=O)[C@@H](NC(=O)[C@H]1CCCCN1C)[C@@H](C)CC)c1nc(C(=O)N[C@@H](Cc2ccc(O)cc2)C[C@H](C)C(=O)NNC(=O)OCc2ccc(NC(=O)[C@@H](CCCNC(N)=O)NC(=O)[C@H](NC(=O)CCCCCN3C(=O)C=CC3=O)C(C)C)cc2)cs1` [TAM471, Maleimido-Val-Cit-PABOCO-Tubulysin/Cytolysin-TAM470] had an IC50 of 17 to 42 nM.

Turning to `CCCO[C@H](C[C@H](C(C)C)N(CCC)C(=O)[C@@H](NC(=O)C(C(C)C(=O)OCc1ccc(NC(=O)[C@H](CCCNC(N)=O)NC(=O)[C@@H](NC(=O)CCCCCN2C(=O)C=CC2=O)C(C)C)cc1)[C@@H](C)CC)[C@@H](C)CC)c1nc(C(=O)N[C@@H](Cc2ccccc2)C[C@H](C)C(=O)O)cs1` (stereo partly shown) [TAM551], in the data set on HT1080 cells [1] (Homo sapiens, HT-1080), the IC50 amounted to 90 nM.

For the molecule `CCCO[C@H](C[C@H](C(C)C)N(CCC)C(=O)[C@@H](NC(=O)[C@H]1CCCCN1C)[C@@H](C)CC)c1nc(C(=O)N[C@@H](Cc2ccc(O)cc2)C[C@H](C)C(=O)NNC(=O)OCCOCCOCCOCCNC(=O)CCCCCN2C(=O)C=CC2=O)cs1` [TAM552], the IC50 in the data set on HT1080 cells [1] (Homo sapiens, HT-1080) came out at 10 nM.

For the molecule `CC[C@H](C)[C@H](NC(=O)[C@H]1CCCCN1C)C(=O)N(COC(=O)CC(C)C)[C@H](C[C@@H](OC(C)=O)c1nc(C(=O)N[C@@H](Cc2ccc(O)cc2)C[C@H](C)C(=O)O)cs1)C(C)C` [Tubulysin A, reference compound], in the data set on HT1080 cells [1], the IC50 was 0.04 to 0.2 nM.

Consider “Nigrin b: native (WT) Nigrin b, type 2 ribosome-inactivating protein with A and B chains”, for which the IC50 in the data set on HT1080-FAP cell line was about 20 nM; in data set [2] it was about 0.0025 nM. The “Mouse LD50” value in data set [3] is listed as 12,000.00 μgkg^−1.

B1: OMTX505: recNgA immunoconjugate tested in vivo (conjugate)
heavy: QVQLVQSGAEVKKPGASVKVSCKASGYTFTENIIHWVRQAPGQGLEWMGWFHPGSGSIKYNEKFKDRVTMTADTSTSTVYMELSSLRSEDTAVYYCARHGGTGRGAMDYWGQGTLVTVSSASTKGPSVFPLAPSSKSTSGGTAALGCLVKDYFPEPVTVSWNSGALTSGVHTFPAVLQSSGLYSLSSVVTVPSSSLGTQTYICNVNHKPSNTKVDKKVEPKSCDKTHTCPPCPAPPVAGPSVFLFPPKPKDTLMISRTPEVTCVVVDVSHEDPEVKFNWYVDGVEVHNAKTKPREEQYNSTYRVVSVLTVLHQDWLNGKEYKCKVSNKGLPSSIEKTISKAKGQPREPQVYTLPPSRDELTKNQVSLTCLVKGFYPSDIAVEWESNGQPENNYKTTPPVLDSDGSFFLYSKLTVDKSRWQQGNVFSCSVMHEALHNHYTQKSLSLSPGK
light: DIQMTQSPSSLSASVGDRVTITCRASKSVSTSAYSYMHWYQQKPGKAPKLLIYLASNLESGVPSRFSGSGSGTDFTLTISSLQPEDFATYYCQHSRELPYTFGQGTKLEIKRTVAAPSVFIFPPSDEQLKSGTASVVCLLNNFYPREAKVQWKVDNALQSGNSQESVTEQDSKDSTYSLSSTLTLSKADYEKHKVYACEVTHQGLSSPVTKSFNRGEC
chain: MIDYPSVSFNLDGAKSATYRDFLSNLRKTVATGTYEVNGLPVLRRESEVQVKSRFVLVPLTNYNGNTVTLAVDVTNLYVVAFSGNANSYFFKDATEVQKSNLFVGTKQNTLSFTGNYDNLETAANTRRESIELGPSPLDGAITSLYHGDSVARSLLVVIQMVSEAARFRYIEQEVRRSLQQATSFTPNALMLSMENNWSSMSLEIQQAGNNVSPFFGTVQLLNYDHTHRLVDNFEELYKITGIAILLFRCSSPSND
Take B1: the “in vivo anti-tumoral efficacy” value in data set [4] (0.5 mg/kg, once a week i.p. over 5 weeks, single agent) is given as 60%. Also, the tumor growth inhibition in data set [4] (combined with Gemcitabine, tumor regression) stood at 100%.

B2: A5-IgG1: human anti-human Endoglin IgG1; heavy chain SEQ ID NO: 3, light chain SEQ ID NO: 4; ADCC/CDC deficient (antibody)
heavy: EVQLLESGGGLVQPGGSLRLSCAASGFTFSSYAMSWVRQAPGKGLEWVSAIYGSDGDTTYADSVKGRFTISRDNSKNTLYLQMNSLRAEDTAVYYCARVFYTAGFDYWGQGTLVTVSSASTKGPSVFPLAPSSKSTSGGTAALGCLVKDYFPEPVTVSWNSGALTSGVHTFPAVLQSSGLYSLSSVVTVPSSSLGTQTYICNVNHKPSNTKVDKKVEPKSCDKTHTCPPCPAPPVAGPSVFLFPPKPKDTLMISRTPEVTCVVVDVSHEDPEVKFNWYVDGVEVHNAKTKPREEQYNSTYRVVSVLTVLHQDWLNGKEYKCKVSNKGLPSSIEKTISKAKGQPREPQVYTLPPSRDELTKNQVSLTCLVKGFYPSDIAVEWESNGQPENNYKTTPPVLDSDGSFFLYSKLTVDKSRWQQGNVFSCSVMHEALHNHYTQKSLSLSPGK
light: DIELTQSPSSLSASVGDRVTITCRASQSISSSLNWYQQKPGKAPKLLIYAASSLQSGVPSRFSGSGSGTDFTLTISSLQPEDFATYYCQQAPAKPPTFGQGTKLEIKRTVAAPSVFIFPPSDEQLKSGTASVVCLLNNFYPREAKVQWKVDNALQSGNSQESVTEQDSKDSTYSLSSTLTLSKADYEKHKVYACEVTHQGLSSPVTKSFNRGEC
modifications: Synthetic sequence A5-IgG1-HC - without signal sequence; Synthetic sequence A5-IgG1-LC - without signal sequence
As to B2, in the data set with HT1080 cells [5], the “binding to human ENG by flow cytometry, in words” value was “concentration-dependent binding”. Also, the “Tm (DLS)” value in [6] came out at 72 °C. Also, the “internalization (time)” value in the data set with HT1080 cells [7] (HT1080) was 30 to 60 min. The “share of antibody found within cells” value in the data set on HT1080 cells [7] (HT1080 cells, within 30 min, preliminary) is given as about 90%. Further, in the data set with recombinant human ENG, the “binding to human ENG by ELISA, in words” value was “concentration-dependent binding”.
